Measurements: PMC12669755

Molecular target: 3xFLAG::mScarlet::WAGO-4 (UniProt O62275)
Assay: in vitro phase separation (condensate partitioning, confocal fluorescence microscopy)

Substance: minimal P granules (condensates of PGL-1, PGL-3, GLH-1 and GLH-4 with poly-A+ mRNA), WT GLH-1 and GLH-4 (from UniProt Q9TZQ3;G5EBV6;P34689;O76743) GLH-1(F→A); GLH-4(F→A)
- other: condensed / dilute phase mScarlet::WAGO-4 fluorescence ratio (second replicate, n = 36 ROIs, buffer-only negative control ratios in the same panel: WT 1.36, FG* 1.41, parent: 2.45): 2.09
- other: condensed / dilute phase mScarlet::WAGO-4 fluorescence ratio (single experiment, n = 32-36 ROIs, buffer-only negative control ratios in the same panel: WT 1.36, FG* 1.32, parent: 3.04): 2.53
